Measurements published in paper PMC3670040, “Structure of Lipid Kinase p110β/p85β Elucidates an Unusual SH2-Domain-Mediated Inhibitory Mechanism” (Molecular Cell, 2011).
Where two headings read alike, the source gives them in different places.

Experiments:
p110β [1] = target: T1, p110β (Mus musculus, UniProt Q8BTI9); experiment: Transcreener ADP formation (fluorescence polarization), diC8-PIP2/POPS liposomes, mouse p110β complexes; assay type: biochemical; conditions: Figure 5B
T1 construct: Mouse His6-p110β(1-1064)/p85β-icSH2(423-722) complex; made in house; host or cells: Sf9 insect cells (baculovirus co-infection)
Protocol: (§1) Figure 1 Inhibition of p110β by p85-Type Regulatory Subunits and Activation of the Complexes by RTK Phosphopeptide (A) Domain organization of p110β and the regulatory subunits p85α, p85β, and p55γ. The color scheme for the domains is used for all figures, unless otherwise stated. […] The inhibition is released upon addition of the 10 μM PDGFR pY2. […] The y axis is expressed as a change in fluorescence polarization (ΔmP), which is obtained by subtracting the observed polarization for the construct at a given enzyme concentration from the maximum fluorescence polarization for that construct. The plateau in these assays arises due to the competitive nature of the ADP detection system, based on displacement of ADP-Alexa 633 tracer from the ADP^2-antibody by ADP generated during the PI3K assay (see Supplemental Experimental Procedures). All measurements were done in triplicates, and the error bars indicate the standard error of the mean (SEM). (C) Kinase activity of p110β/p85β complexes with monomeric substrate (75 μM diC8-PIP2) in the presence and absence of pY2; y axis as in (B). (D) Basal- and pY2-stimulated activities of 35 nM PI3K complexes in the absence of lipids (ATP hydrolysis). Activities are given as percent of ATP converted to ADP using the Transcreener assay. Bars indicate SEM. TEXT PRINTED IN THE PICTURE: (B) p110β/nic: EC50 (nM): 15 | (B) p110β/nic+pY2: EC50 (nM): 0.14 | (B) p110β/ic: EC50 (nM): 1 | (B) p110β/ic+pY2: EC50 (nM): 0.21 | (B) p110β/ni: EC50 (nM): 0.84 | (B) p110β/ni+pY2: EC50 (nM): 0.24 | (B) p110β/i: EC50 (nM): 0.12 | (B) p110β/i+pY2: EC50 (nM): 0.14 | (B) ΔABD-p110β: EC50 (nM): 0.06 | (B) ΔABD-p110β+pY2: EC50 (nM): 0.05 | (C) p110β/nic: EC50 (nM): 24 | (C) p110β/nic+pY2: EC50 (nM): 3 | (C) p110β/ic: EC50 (nM): 5 | (C) p110β/ic+pY2: EC50 (nM): 2 | (C) p110β/ni: EC50 (nM): 4 | (C) p110β/ni+pY2: EC50 (nM): 2 […]
(§2) Figure 3 Mutation Y677A in p85β-cSH2 Releases Inhibitory Effect on p110β (A) Kinase activity (ADP formation) of p110β in a complex with p85β-icSH2-Y677A (Y677A-ic) compared to the wild-type complex (ic) in the absence and presence of 10 μM PDGFR pY2 (ADP formation on the y axis expressed as in Figure 1B). (B) Comparison of p110β activities of 1 nM complexes with wild-type or Y677 mutant nicSH2 or icSH2 (activity shown as in Figure 1D). TEXT PRINTED IN THE PICTURE: (A) p110β/ic: EC50 (nM): 1 | (A) p110β/ic+pY2: EC50 (nM): 0.15 | (A) p110β/ic-Y677A: EC50 (nM): 0.11 | (A) p110β/ic-Y677A+pY2: EC50 (nM): 0.08 […]
(§3) The lipid kinase activity was determined using the Transcreener ADP2 FP Assay (BellBrook Labs, Madison, WI) according to manufacturer‟s specifications. This non-radioactive assay measures activity by quantitating the amount of ADP formed. The ADP formed by PI3K competes with fluorescent ADP tracer for binding to an anti-ADP antibody, thereby decreasing fluorescence polarization. Because of the competitive nature of this assay, the change in fluorescence polarization signal is not a linear function of enzyme activity, and a convenient measure of enzyme activity is the EC50, or the concentration of enzyme necessary to give half-maximal inhibition of labeled ADP binding to the antibody, for a given concentration of substrate and a fixed time of reaction at initial rate. While activity of two different enzyme constructs can be compared at a fixed concentration of protein and a fixed concentration of substrate, the assay is most reliable when about 2%-10% of the ATP is […]
(§4) Consequently, the EC50 provides a convenient way to compare the activities of various constructs. Briefly, reactions were performed in 10 μl volume in 384-well black plates (Corning 3676) and they contained final 100 μM ATP, 75 μM lipids and a series of protein concentration varying from 0.001 nM to 2.5 μM. Serial dilutions of protein heterodimers were prepared in buffer F (50 mM Hepes pH 7.5, 100 mM NaCl, 0.03% CHAPS, 4 mM DTT) in 5 μl […]
volume. […]

p110β [2] = experiment: as above; assay type: biochemical; conditions: Figure 5B, C-terminal truncation vs wild-type, diC8-PIP2/POPS, 100 μM ATP, 1 h, room temperature
Protocol: as §1, §2, §3, §4
volume. […]

T1 sequence (Q8BTI9 1-1047): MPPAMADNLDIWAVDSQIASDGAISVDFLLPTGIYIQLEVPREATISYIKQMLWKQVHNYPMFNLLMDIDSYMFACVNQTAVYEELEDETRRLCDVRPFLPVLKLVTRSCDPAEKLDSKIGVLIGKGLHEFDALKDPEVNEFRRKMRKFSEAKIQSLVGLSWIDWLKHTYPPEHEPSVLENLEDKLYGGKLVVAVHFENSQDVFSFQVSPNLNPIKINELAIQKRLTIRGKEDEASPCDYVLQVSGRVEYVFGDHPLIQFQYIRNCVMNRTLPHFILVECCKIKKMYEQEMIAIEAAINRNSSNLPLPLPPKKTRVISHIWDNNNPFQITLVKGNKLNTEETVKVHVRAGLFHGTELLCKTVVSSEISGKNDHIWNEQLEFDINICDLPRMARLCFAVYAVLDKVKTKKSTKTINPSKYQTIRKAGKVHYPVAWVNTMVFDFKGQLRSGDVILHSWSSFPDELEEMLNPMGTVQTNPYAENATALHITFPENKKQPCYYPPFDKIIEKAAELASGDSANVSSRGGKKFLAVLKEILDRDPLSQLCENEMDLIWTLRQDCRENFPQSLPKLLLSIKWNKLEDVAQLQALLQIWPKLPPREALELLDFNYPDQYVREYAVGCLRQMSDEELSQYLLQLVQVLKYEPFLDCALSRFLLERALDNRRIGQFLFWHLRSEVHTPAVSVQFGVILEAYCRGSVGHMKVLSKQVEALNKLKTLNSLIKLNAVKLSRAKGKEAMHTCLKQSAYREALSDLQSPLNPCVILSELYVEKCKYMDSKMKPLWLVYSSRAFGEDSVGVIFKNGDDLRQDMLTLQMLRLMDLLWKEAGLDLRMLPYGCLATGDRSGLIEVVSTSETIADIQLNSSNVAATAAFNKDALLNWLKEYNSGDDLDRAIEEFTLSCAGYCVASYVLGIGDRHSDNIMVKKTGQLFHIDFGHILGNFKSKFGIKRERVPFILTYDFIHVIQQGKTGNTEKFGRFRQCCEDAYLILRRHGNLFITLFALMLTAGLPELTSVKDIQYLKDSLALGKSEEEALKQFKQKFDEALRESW
T1 sequence (O08908 318-722 partner): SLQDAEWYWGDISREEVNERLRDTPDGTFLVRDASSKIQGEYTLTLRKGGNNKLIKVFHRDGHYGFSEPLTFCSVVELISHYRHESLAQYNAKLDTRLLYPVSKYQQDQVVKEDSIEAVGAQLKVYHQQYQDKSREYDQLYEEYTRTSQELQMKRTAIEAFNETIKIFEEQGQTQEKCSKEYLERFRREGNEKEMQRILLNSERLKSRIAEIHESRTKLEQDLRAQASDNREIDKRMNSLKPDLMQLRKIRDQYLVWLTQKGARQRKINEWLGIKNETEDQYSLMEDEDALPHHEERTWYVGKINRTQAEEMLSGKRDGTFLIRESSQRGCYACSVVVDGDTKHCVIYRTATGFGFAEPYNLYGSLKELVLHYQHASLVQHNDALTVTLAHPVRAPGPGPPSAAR

B1: p110β-ΔCter/nic: truncation mutant lacking 17 residues from the p110β C terminus; human ΔCter (1-1053) used in cells (protein, UniProt P42338 1-1053, looked up, fragment)
chain: MCFSFIMPPAMADILDIWAVDSQIASDGSIPVDFLLPTGIYIQLEVPREATISYIKQMLWKQVHNYPMFNLLMDIDSYMFACVNQTAVYEELEDETRRLCDVRPFLPVLKLVTRSCDPGEKLDSKIGVLIGKGLHEFDSLKDPEVNEFRRKMRKFSEEKILSLVGLSWMDWLKQTYPPEHEPSIPENLEDKLYGGKLIVAVHFENCQDVFSFQVSPNMNPIKVNELAIQKRLTIHGKEDEVSPYDYVLQVSGRVEYVFGDHPLIQFQYIRNCVMNRALPHFILVECCKIKKMYEQEMIAIEAAINRNSSNLPLPLPPKKTRIISHVWENNNPFQIVLVKGNKLNTEETVKVHVRAGLFHGTELLCKTIVSSEVSGKNDHIWNEPLEFDINICDLPRMARLCFAVYAVLDKVKTKKSTKTINPSKYQTIRKAGKVHYPVAWVNTMVFDFKGQLRTGDIILHSWSSFPDELEEMLNPMGTVQTNPYTENATALHVKFPENKKQPYYYPPFDKIIEKAAEIASSDSANVSSRGGKKFLPVLKEILDRDPLSQLCENEMDLIWTLRQDCREIFPQSLPKLLLSIKWNKLEDVAQLQALLQIWPKLPPREALELLDFNYPDQYVREYAVGCLRQMSDEELSQYLLQLVQVLKYEPFLDCALSRFLLERALGNRRIGQFLFWHLRSEVHIPAVSVQFGVILEAYCRGSVGHMKVLSKQVEALNKLKTLNSLIKLNAVKLNRAKGKEAMHTCLKQSAYREALSDLQSPLNPCVILSELYVEKCKYMDSKMKPLWLVYNNKVFGEDSVGVIFKNGDDLRQDMLTLQMLRLMDLLWKEAGLDLRMLPYGCLATGDRSGLIEVVSTSETIADIQLNSSNVAAAAAFNKDALLNWLKEYNSGDDLDRAIEEFTLSCAGYCVASYVLGIGDRHSDNIMVKKTGQLFHIDFGHILGNFKSKFGIKRERVPFILTYDFIHVIQQGKTGNTEKFGRFRQCCEDAYLILRRHGNLFITLFALMLTAGLPELTSVKDIQYLKDSLALGKSEEEALKQFKQKFDEALRESW
Question: For B1, which “basal activity with diC8-PIP2/POPS” value (p110β [1]) is on record?
Answer: The value was “very low basal activity”.

Question: What about the EC50 (p110β [2]; absence of pY2, read-out: EC50 (enzyme concentration), lipid kinase activity, basal) of the same molecule?
Answer: The EC50 was 38 nM.

Question: What about the EC50 (p110β [2]; with 10 μM PDGFR pY2, read-out: EC50 (enzyme concentration), lipid kinase activity, + pY2) of the same molecule?
Answer: The EC50 was 57 nM.
